From article doi:10.1101/2022.08.08.502946 (bioRxiv, 2022)
Numbering of substitutions follows the chain as printed. Names and notes keep the numbering of the source. Blank lines part the entries; values can stand above or below the molecule they belong to.

Tests used:
[1] = molecular target: NaKΔ18 S-ELM (Bacillus cereus) (UniProt Q81HW2); experiment: crystal structure
[2] = molecular target: the molecule itself; experiment: crystal structure

stoichiometry N [1]: 4
Molecule: NaKΔ18 S-ELM (from UniProt Q81HW2 19-114) (domain or fragment)

B1: NaKΔ18 C-DI (domain or fragment, Bacillus cereus, UniProt Q81HW2 19-114, looked up)
chain: WKDKEFQVLFVLTILTLISGTIFYSTVEGLRPIDALYFSVVTLTTVGCDISPQTDFGKIFTILYIFIGIGLVFGFIHKLAVNVQLPSILSNRKKE
stoichiometry N [2]: 4

B2: NaKΔ18 C-DI F92A (domain or fragment, Bacillus cereus, UniProt Q81HW2 19-114, looked up)
chain: B1 chain with F73A
stoichiometry N [2]: 4

B3: NaKΔ18 S-DI (domain or fragment, Bacillus cereus, UniProt Q81HW2 19-114, looked up)
chain: B1 chain with C48S
stoichiometry N [2]: 4
